Test: label from the status in PepcDB records

| Sequence | protein production |
| --- | --- |
| MHLVNIRNQPLGNTIIQVLGVMAFGLFAAVVYMKTSNLIFAIVVHAMNDFMAIMASSGSLSSQQTNPLTILYEWFIFGTLAFALFYTGWTQREKFIAAIQERSPQLTARKLPTLAQSSTFRRIFALVSMIYGILILPTMLLFSKLSTSAGSRAEIANKALPIYLLFLLGIALYIFLIVFFDFHLGNLCWLLLPYIGGPVFALIALVNGARPLTEKTNQSKTINNKTPN | failed |
| DSKDLALCSMILTEMETHEDAWPFLLPVNLKLVPGYKKVIKKPMDFSTIREKLSSGQYPNLETFALDVRLVFDNCETFNEDDSDIGRAGHNMRKYFEKKWTDTFK | not failed |
| MTRADCRSRLMEVATELFAQKGFYGVSIRELAQAAGASISMISYHFGGKEGLYAAVLQEQFACFGQLDDIRGQAGDPLAVMTAYLRWTIQRHRNNPQLLRFYTSELTNPTPCFAAIVSPAIASVIRLLAESIEAGMTRGLFRRDLHAVNSALALAGMVNYFFLSTLATEGLTSHSPDQDEELIRQYVAIFTRGIMADGGAAPA | not failed |
| MNLHTKTWVQRLPVPIDVAWDFFSQPGNLARITPPEMMLKAEGGNAGTAIYEGMKLNFVLYPFMMIPVRWTTEIMKVSKPDFFEDRQLSGPYEQWYHRHLFRDIEGGTEMTDIVEYALPFDLFGEVVEALIVGPRLDEVFEYRRCRVAEILGLEHHHHHH | failed |
| MIANNIIPIIFLLIIVYGMFKGRKVYEWFLEGAKEGLMVCVKIFPALLAMMIAIRIFKDANLLNYLNNLLEPIVSLIGLPKDIVPLVLIKPLSGSGALGVYTELINTLGPDTREGLISSVIMGGTETIFYTITVYFGAVGIKKIRHTFWAALMADITAIIMAVLVVSMFFGL | failed |
| MMRPLCFFLLIFLLSGNPVMAAELRPFICVNEKDHLPSLDPQADAWYREAVALAKPDTLRPWDRIVDLYSKAVERGHWKAMHNLASLYRTGWPGGVEKDTQKALDLYQKMIDLKVPQGFYDMAAMIGNRAGVKNPATDGLTFLDKAASLGNPPALTELGRLYIYVAGQDELGLKYTNCAAGQGYAPANYELAMYYRLVAHNYPKAAGYYLLAASQGNDDAAFFMSGVFDKTSPDVDRMWYAPDEKLHKLYDGIYDQLAADPDLRFPNLIKDHPLPPHPTQGYDADRPDWKPGQ | failed |
| MGMAAESQFHVLAVDDSLFDRKLIERLLQKSSCQVTTVDSGSKALEFLGLRQSTDSNDPNAFSKAPVNHQVVEVNLIITDYCMPGMTGYDLLKKVKESSAFRDIPVVIMSSENVPARISRCLEEGAEEFFLKPVRLADLNKLKPHMMKTKLKNQKLEEIETTSKVENGVPTAVADPEIKDSTNIEIEILPLQQDLLLVQQEEQTLSINNKRKSVEEGISTDRARPRFDGIATAV | failed |
| MRILSIIRIIGILVMCFSGTMLVPAFVALIYGDGGGKAFMQAFMLSLIAGTLLWWPCHHHKQELRSRDGFLIVVAFWLVLGSLATLPLLLFDSPHLTIASAVFEAFSGLTTTGATVMTGLDNLPKSILFYRQFLQWLGGMGIIVLAVAIIPLLGIGGTQLYRAESSGPLKDQKSLPKISEVAKALWIIYASLTVLCAIAYWLSGMNLFDAIGHSFSTISNGGFSTHDASIGYFNQASIYWVTTIFMLIGGVNFSLHISAFLALGKRNIWRNYWKDPEFRFFLTMQIIFIGIVSLSLYGYGLVSDINEAVTKGALQLTSMSMTAGYTIFDIDNLPPFIGLLLVISAVIGGCGGSTTGGLKAIRTLILWKQIDRELHSLIHPNLVQPIRIGKNRLAPRMIESIWAFFIIFILVYWGCVFAVILCGMNTFDAMGAVFATLTNAGPGLGFIHESFIGVPESAKLVFSFAMICGRLEMFSLIVLFIPSYWKK | failed |
| MKTEARILKECLAAAAPNCLHSILPPVVRDDQTRSMNKPMESYYHQFLEEFRLPLTNPVLVFSLVLFIILLAPIVSKRFNIPGTVGLILSGVLIGPHSLNLLEKSSAVELFSTIGLLYILLIAGLELDVNDFRKNRYKSALFGLLTFSIPIVLGYPVCRYLLNYPMSTSLLTASMFATHTLVAYPVVSRMGISKNRTVAITVAGTILSDTAVLILLAVIIGYSRGDINHEFWLHLVIALTLFSAIVFIVLPAIARWFFTKLENEKHAHYIFVLAALFFSAFLAKAAGLEPIVGAFAAGLALNPLIPGSSALMNRIEFIGNSLFIPFFLISVGMLVDLRIILSSPIALIIAALLTFVALAGKWLAALSTQKIFGYSAAHRRLIFGLSSSRAAATIAIALVGYRARILDLNILNAIIILILVTCIVSSLVTEKAAKEIVLEENDAAPEKEHAQGDADEQILLPIAENKPSERVLELAVMIREKRSLNPLTILTVVPNDHEAELNVKKAKKELAPTVDFAASFDTSLNIVATIDYNICSGISRAVKESQSNLIIFDWPSRQGFLGRMINDATESIVECTCKTTMICHLTRPLAIHRRIVVICPPFAEKEKGFGQWLRKMSRLSQELTIPLLFHCDRKSRLAIIETLKTSHSTSPVLYEVFKNFREWEDIASRKLHFREDDIVTFVCARRESISYKPFFDLVPEQLEKHVKDISKIMIYPEQFDSAIIEEEYADVVAPKSFPFGASTIRKIREEISGFMKKNQLQIRKKARGKTAATPKRFGFSRKEP | failed |
| MCDRHQKLIRATDKPNFFGIDHYGFPEAGEHPADPPGYYPEYFSSERFQRLGYHVEELRGGFYWVTSGGYDAAFVVTSDGVVAIDAPPTIGENMLAAIEDVTDKPVTHLIYSHWHTDHIGAASVFGPNVEIVAHDITKELLERFPDPNRPVPTVTFDKDHLLVVGGVTLELSYKGENHCPGNIFIYAPAQKVLTVIDIVSPGSATFMHCDASQNITGWYEAQKQLMEYEFDFLVAGHHMKYGTPETVAASIEYFQDVLDGAQAAVDRFSRSDALVSILEGAGWDQVFSGTENWINSMANFATKYVLEKKSSNGQLWSERLAGVTTQTKYHAYTVLESIRLERPRPNYRLRGENPPPFLT | failed |
| MKLVVVSAGLSVPSSTRLLADRLAKATAARVPAEVEVVELRDLAVEIAHNFTNGFPGRALAAAIGAVTEADGLIVVTPVFSASYSGLFKSFFDVLEQGVLAGKPVLIAATGGSARHSLVLEHALRPLFAHLRAVVVPTGVYAASEDWGAEGLAERIERAAGELAGLMTGLMSGVSAVGPARDAQPRAGAEVSADGPAAAPAEGSVPRPRETVAQSATAGRGSRTDGFQVVPFEQQLAALRTR | failed |
| MRVEVFPVEGLPLIKEGDDLAELISSRVRFEDGDVLVVCSTVISKAEGRIRRLEEFNPSERAKEIAARIGKPAEFVQAVLEESEEVLLDFPFLLVKAKFGNVCVNAGIDASNVEEGSLLLPPLDPDGSAEKLRRRILELTGKRVGVIITDTNGRCFRRGVVGFAIGISGVKAMKDWIGRKDLYGRELEVTVECVADEIAAFANLLMGEGGDGIPAVVVRGLNVAGEGSMEEIYRSEEEDVIRRCLKRCL | not failed |
| MADSKGTASPAKPLQPPSAATPIIERVIKQMESEDGWVSLGEVGKHLSNLASDFDPRTFGFRKLSDLVRKTNAFELEQQNGHLEHHHHHH | failed |
| MPVLVLLLAVGTGCVSTGTNPVSGNTRAYGYSWQEEVTMGQKADKQIQSQYGVYDDEELQEYVDGVAQEVLAESHMRRPDTPERFRNTEFEFRVLDSPIINAFALPGGYVYVTRGLVAHLNNEAQLAMVLGHEIGHVAARHASQQAARQKFTQGLLLSGAVAGQVAFGGNVAENVMGLGGQAAQLLSLSYSRDNERESDRLGVEYAVRAGYDGAEGAAFFESLERVREQGGQSIPTWQSTHPDPGARQQTIPELAQTWRKKVDRPATTIDQDAYYNALEGTVLGKNPRQGFVEEGVFYQPELAFRFSIPSRWDVQNQPQQVALVQPDQSAYMIFTFSDAETPDAAARKFAGQDGLSVLDRQSTSVNGNDARRVLAEGKTQQGQVVRLLTYFIAYGDNVYQFQGTTSADRYDAYRPDFERTMTSFARLTDSEKLNRQPARIAIQAADREGAFRSFVDTDALPSDMTEEDLAIINQLDVDQVVAPDRPLKLPN | failed |
| MSSLVGLHYATVLPLAAYLLLAVVILLLAMGRDGAARKTFTASLLMIVLGWIPYIAAFLLLDYSLDEVAKNASDELSPYLRIGAAWSGGGGSLYLFSAFLSLAILLQMLLNKGLNRRAMAVFTLLVLTSMTSATLMGAFGTGPGERGGLGINPVLKNYWVVPHPTTTFLGYSFILVGSVALVLGYYRTGLPIQLLGLAFLTFGLVFGGMWSYETFGWGGYWAWDPVETSQLAVWLATVASIHMIGPLRSLNRGFAAYAASSVFLALYVTRSGVSPLHSFAAESFSAVLLLSASLVMLALSMLLFSEGVGETLEKWKSRLQDARWPPRIAEMNLSNILLTVGSVSIALSALIVYSSLLTPSVLKLVGLDTQPPSFEQGVRFYNRLLIPLALVSLYAVAGYYVSVRAGAKAAYSLFATLTVVLAIMGLATVKNTIIISPLSDTTTNLASATLLAAGSISGSVLLAMSLWMLYGMVKGKVAKSVHTLRIVLEKLVHATMIMILVSVAMSGSYAYNQGYSEEVLVPLGGEVSVMGVTISYEGYDYELHQGTVDLKNNLDPSSAILITAREALNMMDEDLSSTIREYRLASAESQSDRTLQTLLKASASNSEYRGVFTSTRGVADAAVVDVRTGENISNIQTAGETVLQLEDPTLEVTIDPKLDPETGRIEGGALSVVFYPERLVVYGIGSPVSLDPYSYLYVRFREPVEINLDDITVNMEEVVVYSTGGSSIEGVVSGQSVLFEGVAIRVVSGELSFGSMNIELPYQLDRGEFFYFMVYKGQAEVLDDILSSSISDLLESGIAGLAAGEDMDDFNVPRRAPAGVSLRLFMEVNGEPVEADLRFEANGEAIGIHGLVIDTIILRRGLTNVYITVQAPLVSGHFGEYHELMVYYLNEAMNTLRPEEYLALASVMAAGYNIASIVSSPSKERAALEVERATIDLYLLSEKLDEKRSSAAEGIVVSVKIVPGVPLLWLTGVLAGVLLLAMASIHFYLGFRQGRLIDT | failed |
| MNSRMKIKKAYEYMKSFHQHDTTGHDIAHVERVYNNACYIAKRENITDTLVIELSSLLHDTVDSKLTDEILAYDQLKQFLSTLDLSSEISQQVLYIIKHMSYRAGKNNHVKLSIDGEIVRDADRLDAIGAIGIARTFQFSGHFGEPMWTETKLSNEELHTSLVEELDNSAIKHFYEKLFKLKDLMHTPTAKKLAEERHQFMIQYLKQFMSEWNFNKELEHHHHHH | not failed |
| MKTKSWIASLFYSSLCFSSSYAINLHQITITDPIMGSRTITYEQVGEFAVVEGDILIGKAENLKNQGAVITPKVGGSRWPNGVIPYEIAENLPFINKLAILQAIDHWQKNTNLEFVELTSKNRYDYRDYISFIPAEGTTCSSYVGRQGGKQEINLAPRCTTMNTVHEIGHALGMWHEQSRSDRNQYIRIVWENIDEEHKFNFDQHLTDGKDFGEYDYGSIMHYGRFAFSKNGQPTIIPLVDGVEIGQRTHLSEKDIAAVKAMYPET | failed |
| MRTTAAEEAGLETETARRRFSRASLVNVAGNAVKILVEGAVGLAFGSVALLADAAHSVADLVASAVVLVWGRSVYTDPDENHPHGHQRVEPLAALFVGSLIVLLGLNLFYESATGLVAGPEVQFHPLLVGALLFAMADMYLLYWYTTHINESVGSSALEALAIDCRNDIYTTIAALCGVIGVFFGYPLFDAVAGGLVSVLVVYQGFEISRENVSYLVGASPSDQQRQRVVETLTDHPAVHGAHDVAVFYDGTDIEVEAHVEVDGELTLVEAHDIETELVSALRSLESVGDVHLHLDPAGIGEWKDAAVNEQRGPETQTGSPKQ | failed |
| KERILSSERLAKIMMSELGDKRQEHLIAIYLDTQNRVIKKQVIFIGSVRRSVAEPREILHYACKSMATSLIIVHNHPSGSTYPSENDLRFTEKIKRSCDDLGIVFLDHIIVGKKEYYSFREETDLV | not failed |
| MNRDLPVLRALRSLPDKVVGEALVSNDAISMRYDVDASTGKVVRPSHDLYGQSISGKVLIFKNTKGGVATGWALLNLKSRGTAPIALVCDTTNPVFVQGAALAGLPIMDGFRESPRSAVRTGDVVELDGISGELKVLRRGAGGQLEHHHHHH | failed |
| DVTYDGHPVPGSPYTVEASLPPDPSKVKAHGPGLEGGLVGKPAEFTIDTKGAGTGGLGLTVEGPCEAKIECSDNGDGTCSVSYLPTKPGEYFVNILFEEVHIPGSPFKADIEMPFDPS | not failed |
